Laboratory results as given in patent US20190352381A1 (Alexion, published 2019).
Where a chain is given by its changes, count along the chain named. In names and notes the source's numbering stands. Like-named read-outs stand apart in the source and are kept apart here. One block for each binder: values may come before it.

How the values were obtained:
[1] = target: T1, human properdin (human, UniProt P27918 28-469); test: Octet bio-layer interferometry; streptavidin biosensors loaded with biotinylated human properdin, construct at 10 ug/mL
T1 construct: properdin of normal human serum in the hemolysis assays; Properdin forms cyclic dimers, trimers and tetramers; also called biotinylated human properdin; h-IP
Protocol: All washes, dilutions, and measurements were performed in Kinetic buffer (FortéBio cat 185032) with the plate shaking at 1000 rpm. Streptavidin Biosensors (Forté Bio Cat:18-5019 lot: 1405301) were equilibrated in Kinetic buffer for 10 min and then loaded with 50 nm of biotinylated human properdin. For the association phase, 10 μg/mL of selected anti-properdin antibody or kinetics buffer blank was added to the biosensors preloaded with biotinylated human properdin, respectively.

[2] = target: T1, human properdin; test: cell-based or functional assay
[3] = target: T1, human properdin; test: cell-based or functional assay; remark: listed apart in the source
[4] = target: T1, human properdin; test: binding kinetics at pH 6.0
[5] = target: T2, Human Albumin (human, UniProt P02768 25-609); test: binding kinetics at pH 6.0
[6] = target: T3, Cynomolgus Albumin (cynomolgus, UniProt A2V9Z4 25-608); test: binding kinetics at pH 6.0
[7] = target: T1, human properdin; test: binding kinetics at pH 7.4
[8] = target: T4, cynomolgus properdin (cynomolgus, UniProt A0A2K5V0Z6 29-470); test: binding kinetics at pH 7.4
T4 construct: properdin of cynomolgus serum in the hemolysis assays; also called biotinylated cynomolgus properdin

[9] = target: T2, Human Albumin; test: binding kinetics at pH 7.4
[10] = target: T3, Cynomolgus Albumin; test: binding kinetics at pH 7.4
[11] = target: T1, human properdin; test: binding kinetics, biotinylated properdin capture method
[12] = target: T1, human properdin; test: as above; remark: listed apart in the source
[13] = target: T4, cynomolgus properdin; test: as above
[14] = target: T1, human properdin; test: sensorgram kinetics (RU), biotinylated properdin capture method
[15] = target: T1, human properdin; test: cell-based or functional assay; remark: listed apart in the source

B1: TPP-3071 (anti-Albumin LVP058 (G4D)2 (G4) Linker) (bispecific antibody)
chain: EVQLVESGGGLVKPGGSLRLSCAASGRPVSNYAAAWFRQAPGKEREFVSAINWQKTATYADSVKGRFTISRDNAKNSLYLQMNSLRAEDTAVYYCAAVFRVVAPKTQYDYDYWGQGTLVTVSSGGGGDGGGGDGGGGEVQLVESGGGLVQAGGSLRLSCAASGRISSIIHMAWYRQAPGKQRELVAEISRVGTTVYADSVKGRFTISRDDAKNTVTLQMNSLKPEDTAVYYCNALQYEKHGGADYWGQGTQVTVSS
notes: Single chain: anti-albumin VHH, (G4D)2 G4 linker, non-humanized LVP058
binding result [1]: binds

B3: TPP-2221 (LVP058_hG2-G4, VHH on silent human Fc) (Fc fusion)
chain: LEVQLVESGGGLVQAGGSLRLSCAASGRISSIIHMAWYRQAPGKQRELVAEISRVGTTVYADSVKGRFTISRDDAKNTVTLQMNSLKPEDTAVYYCNALQYEKHGGADYWGQGTQVTVSSRKCCVECPPCPAPPVAGPSVFLFPPKPKDTLMISRTPEVTCVVVDVSQEDPEVQFNWYVDGVEVHNAKTKPREEQFNSTYRVVSVLTVLHQDWLNGKEYKCKVSNKGLPSSIEKTISKAKGQPREPQVYTLPPSQEEMTKNQVSLTCLVKGFYPSDIAVEWESNGQPENNYKTTPPVLDSDGSFFLYSRLTVDKSRWQEGNVFSCSVMHEALHNHYTQKSLSLSLGK
IC50 (read off the curve) [3]: ~10 nM

B4: TPP-2225 (anti-Albumin LVP058 (G4S)3 Linker) (bispecific antibody)
chain: EVQLVESGGGLVKPGGSLRLSCAASGRPVSNYAAAWFRQAPGKEREFVSAINWQKTATYADSVKGRFTISRDNAKNSLYLQMNSLRAEDTAVYYCAAVFRVVAPKTQYDYDYWGQGTLVTVSSGGGGSGGGGSGGGGSLEVQLVESGGGLVQAGGSLRLSCAASGRISSIIHMAWYRQAPGKQRELVAEISRVGTTVYADSVKGRFTISRDDAKNTVTLQMNSLKPEDTAVYYCNALQYEKHGGADYWGQGTQVTVSS
notes: Single chain: anti-albumin VHH, (G4S)3 linker, non-humanized anti-properdin VHH LVP058; also called anti-Alb-LVP058
Kd [4]: 2.57 nM
Kd [5]: 0.646 nM
Kd [6]: 2.3 nM
Kd [7]: 0.172 nM
Kd [8]: 1.98 nM
Kd [9]: 0.774 nM
Kd [10]: 7.07 nM
IC50 (read off the curve) [3]: ~10 nM
Kd [11]: 0.172 nM
koff [11]: 0.000349 s⁻¹
kon [11]: 2.03e+06 M⁻¹ s⁻¹

B5: TPP-2951 (Humanized anti-Albumin LVP058 (G4S)3 Linker (7-backmutations)) (bispecific antibody)
chain: EVQLVESGGGLVKPGGSLRLSCAASGRPVSNYAAAWFRQAPGKEREFVSAINWQKTATYADSVKGRFTISRDNAKNSLYLQMNSLRAEDTAVYYCAAVFRVVAPKTQYDYDYWGQGTLVTVSSGGGGSGGGGSGGGGSEVQLLESGGGLVQPGGSLRLSCAASGRISSIIHMAWFRQAPGKERELVSEISRVGTTVYADSVKGRFTISRDNSKNTLYLQMNSLKPEDTAVYYCNALQYEKHGGADYWGQGTLVTVSS
notes: Single chain: anti-albumin VHH, (G4S)3 linker, humanized LVP058 with 7 back mutations
Kd [7]: 0.301 nM
Kd [8]: 2.33 nM
IC50 (read off the curve) [2]: ~30 nM
Kd [12]: 0.322 nM
koff [12]: 0.000574 s⁻¹
kon [12]: 1.78e+06 M⁻¹ s⁻¹
Kd [13]: 2.33 nM
koff [13]: 0.00426 s⁻¹
kon [13]: 1.82e+06 M⁻¹ s⁻¹
Kd [11]: 0.301 nM
koff [11]: 0.000567 s⁻¹
kon [11]: 1.88e+06 M⁻¹ s⁻¹

B9: AB008 (VHH)
VHH: QVQLVESGGGLRQTGESLRLSCTASGRIFEVNMMAWYRQAPGKQRELVAEISRVGTTTYADSVKGRFTISRDSAKNTVTLQMNSLKSEDTAVYYCNALQYDRYGGAEYWGQGTQVTVSG
notes: Llama VHH, cloned and expressed with a 6x histidine tag; also called anti-properdin VHH AB008
Kd [14]: 0.803 nM
koff [14]: 0.00169 s⁻¹
kon [14]: 2.11e+06 M⁻¹ s⁻¹

Second part, the binder after the results:

IC50 (read off the curve) [2]: ~20 nM
B2: TPP-3072 (anti-Albumin LVP058 (G4E)2 (G4) Linker) (bispecific antibody)
chain: B1 chain with D128E, D133E

Kd [7]: 0.485 nM
Kd [8]: 3.08 nM
Kd [12]: 0.485 nM
koff [12]: 0.000834 s⁻¹
kon [12]: 1.72e+06 M⁻¹ s⁻¹
Kd [13]: 3.08 nM
koff [13]: 0.00587 s⁻¹
kon [13]: 1.91e+06 M⁻¹ s⁻¹
B6: TPP-3261 (Humanized anti-Albumin LVP058 (G4S)3 Linker (3-backmutations)) (bispecific antibody)
chain: B5 chain with L143V, F175V, E182Q, K224R, P225A
notes: Single chain: anti-albumin VHH, (G4S)3 linker, humanized LVP058 with 3 back mutations

IC50 (read off the curve) [3]: ~20 nM
B7: TPP-2224 (LVP058 (G4S)3-anti-Alb-tandem VHH) (bispecific antibody)
chain: LEVQLVESGGGLVQAGGSLRLSCAASGRISSIIHMAWYRQAPGKQRELVAEISRVGTTVYADSVKGRFTISRDDAKNTVTLQMNSLKPEDTAVYYCNALQYEKHGGADYWGQGTQVTVSSGGGGSGGGGSGGGGSEVQLVESGGGLVKPGGSLRLSCAASGRPVSNYAAAWFRQAPGKEREFVSAINWQKTATYADSVKGRFTISRDNAKNSLYLQMNSLRAEDTAVYYCAAVFRVVAPKTQYDYDYWGQGTLVTVSS

IC50 (read off the curve) [3]: ~9 nM
B8: TPP-2223 (Anti-properdin control antibody without C1q binding domain) (antibody, human IgG1, kappa, V domains shown)
VH: QVQLVQSGAEVKKPGASVKVSCKASGYIFTNYPIHWVRQAPGQGLEWMGFIDPGGGYDEPDERFRDRVTMTRDTSTSTVYMELSSLRSEDTAVYYCARRGGGYYLDYWGQGTLVTVSS
VL: DIQMTQSPSSLSASVGDRVTITCRASQDISFFLNWYQQKPGKAPKLLIYYTSRYHSGVPSRFSGSGSGTDFTLTISSLQPEDFATYYCQHGNTLPWTFGQGTKVEIKR

IC50 (read off the curve) [15]: ~20 nM
B10: AB005 (VHH)
VHH: B9 VHH with L4V, E16G, T58V, G119S

IC50 (read off the curve) [15]: ~30 nM
B11: AB006 (VHH)
VHH: B9 VHH with V5A, R12V, T14A, E16D, R19K, Q44D, D101S

Kd [14]: 0.344 nM
koff [14]: 0.000359 s⁻¹
kon [14]: 1.04e+06 M⁻¹ s⁻¹
B12: AB007 (VHH)
VHH: QVQLVESGGGLVQAGGSLRLSCAASGRISSIIHMAWYRQAPGKQRELVAEISRVGTTVYADSVKGRFTISRDDAKNTVTLQMNSLKPEDTAVYYCNALQYEKHGGADYWGQGTQVTVSG
notes: Llama VHH, cloned and expressed with a 6x histidine tag; also called anti-properdin VHH AB007
